Each block holds one binder with its values, some of them ahead of it.
Tests used:
[1] = target: T1, human CD19, membrane-bound, on cells (human, UniProt P15391 20-556); assay: MSD-SET solution equilibrium titration at 37° C., fixed CHO cells expressing human CD19; geometric mean of 3 replicates
T1 construct: The CHO cells were fixed with paraformaldehyde for MSD-SET; also called human CD19 expressing CHO cells; CD19 on Daudi cells and primary human B cells
T1 sequence: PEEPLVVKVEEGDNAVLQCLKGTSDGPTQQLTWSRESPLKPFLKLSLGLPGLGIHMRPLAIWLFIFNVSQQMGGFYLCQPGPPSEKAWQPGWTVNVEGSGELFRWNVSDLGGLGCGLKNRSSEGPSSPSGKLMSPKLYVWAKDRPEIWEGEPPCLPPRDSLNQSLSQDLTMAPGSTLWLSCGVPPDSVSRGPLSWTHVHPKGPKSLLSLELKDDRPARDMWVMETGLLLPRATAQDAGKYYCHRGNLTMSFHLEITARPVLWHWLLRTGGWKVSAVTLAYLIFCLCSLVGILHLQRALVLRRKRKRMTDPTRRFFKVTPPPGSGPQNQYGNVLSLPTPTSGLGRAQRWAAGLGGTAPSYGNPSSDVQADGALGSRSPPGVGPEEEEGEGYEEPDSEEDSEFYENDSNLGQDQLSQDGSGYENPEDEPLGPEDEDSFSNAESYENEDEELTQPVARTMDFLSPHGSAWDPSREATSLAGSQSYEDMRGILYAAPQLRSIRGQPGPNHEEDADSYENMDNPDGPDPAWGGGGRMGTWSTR
Protocol: (§1) Following incubation, cells are pelleted by centrifugation. One hundred microliters of the clarified supernatant from the plate is transferred to the prepared MSD plate and incubated on a plate shaker at room temperature for 60 minutes. Following incubation, the plate is washed 3× with TBST, then 100 μL of 1 μg/mL biotinylated goat anti-human IgG primary antibody (Southern Biotech, Catalog 2010-08) in 1% Blocker A is added to all wells. This is incubated on a plate shaker at room temperature for 60 minutes. The plate was washed 3× with TBST, then 100 μL of 1 μg/mL SULFO-TAG streptavidin (Meso Scale Discovery, P/N R32AD-1) in 1% Blocker A was added to all wells. This was incubated on a plate shaker at room temperature for 60 minutes. The plate is washed 3× with TBST, then 1× Read Buffer T (Meso Scale Discovery, P/NR92TC-1) is added immediately before reading the plate. Dissociation constant (KD) and a least common multiplier (LCM) to account for unknown antigen concentrations on cells are globally fit from the MSD-SET data to an equilibrium binding equation (see Darling and Brault, 2005, Kinetic Exclusion Assay Technology: Characterization of Molecular Interactions. Assay and Drug Development Technologies 2: 647-657) using non-linear regression in GraphPad Prism.

[2] = target: T2, human CD19 extracellular domain protein (human, UniProt P15391 20-291, biotinylated in the FIG. 2 ELISA and in the Fab screening (sites not given)); assay: sandwich ELISA: antibody captured on goat anti-human kappa, biotinylated human CD19 ECD titrated (20 ug/mL to 9 ng/mL), about 16 h wash at 37 C, neutravidin-alkaline phosphatase, absorbance at 560 nm
T2 construct: also called CD19 extracellular domain (ECD) protein; biotinylated human CD19 ECD antigen
T2 sequence: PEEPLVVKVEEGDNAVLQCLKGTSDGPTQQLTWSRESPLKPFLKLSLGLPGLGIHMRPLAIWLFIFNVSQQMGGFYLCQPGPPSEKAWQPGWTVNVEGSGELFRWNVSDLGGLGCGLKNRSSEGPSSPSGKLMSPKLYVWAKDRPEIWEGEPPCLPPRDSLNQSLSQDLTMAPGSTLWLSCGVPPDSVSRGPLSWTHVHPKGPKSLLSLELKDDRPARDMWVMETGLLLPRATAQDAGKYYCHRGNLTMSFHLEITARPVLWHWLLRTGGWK
Protocol: The ELISA assay is performed as follows. A 96 well microtiter plate is coated overnight at 4° C. using 50 μL/well of goat anti-human kappa polyclonal antibody diluted to 5 μg/mL in phosphate buffered saline (PBS). Following overnight incubation, the plate is aspirated and blocked using 200 μL of casein buffer for 1 hour at room temperature. The plate is washed three times using PBST (PBS with 0.1% Tween). The anti-human CD19 antibodies are diluted to 5 μg/mL in PBS casein and 50 μL added to each column of the anti-human kappa coated casein blocked plate for 1 hour at 37° C. The plate is washed three times using PBST. Biotinylated human CD19 extracellular domain protein is serially diluted from 20 μg/mL to 9 ng/mL and 50 μL added to the plates and incubated for 1 hour at 37° C. The plate is washed three times using PBST and then transferred to a beaker containing 1 liter of PBST and incubated with stirring overnight (approx. 16 hr) at 37° C. The wash buffer is aspirated and 50 μL of neutravidin alkaline phosphatase-conjugate diluted 1:1000 in casein buffer is added and incubated for 1 hour at 37° C. The plate is washed three times using PBS 0.1% Tween. Fifty μL of AMP-PMP substrate diluted 1:35 in deionized water is added and the absorbance at 560 nm read on a Spectramax plate reader.

[3] = target: T3, cynomolgus monkey CD19, membrane-bound, stably expressed on CHO cells (cynomolgus monkey, UniProt A0A2K5W8L9 20-557); assay: MSD-SET solution equilibrium titration at 37° C., fixed CHO cells expressing cynomolgus monkey CD19; geometric mean of 3 replicates
T3 construct: whole, on cells; The cells were fixed with paraformaldehyde for MSD-SET; also called cynomolgus monkey CD19 expressing CHO cells
T3 sequence: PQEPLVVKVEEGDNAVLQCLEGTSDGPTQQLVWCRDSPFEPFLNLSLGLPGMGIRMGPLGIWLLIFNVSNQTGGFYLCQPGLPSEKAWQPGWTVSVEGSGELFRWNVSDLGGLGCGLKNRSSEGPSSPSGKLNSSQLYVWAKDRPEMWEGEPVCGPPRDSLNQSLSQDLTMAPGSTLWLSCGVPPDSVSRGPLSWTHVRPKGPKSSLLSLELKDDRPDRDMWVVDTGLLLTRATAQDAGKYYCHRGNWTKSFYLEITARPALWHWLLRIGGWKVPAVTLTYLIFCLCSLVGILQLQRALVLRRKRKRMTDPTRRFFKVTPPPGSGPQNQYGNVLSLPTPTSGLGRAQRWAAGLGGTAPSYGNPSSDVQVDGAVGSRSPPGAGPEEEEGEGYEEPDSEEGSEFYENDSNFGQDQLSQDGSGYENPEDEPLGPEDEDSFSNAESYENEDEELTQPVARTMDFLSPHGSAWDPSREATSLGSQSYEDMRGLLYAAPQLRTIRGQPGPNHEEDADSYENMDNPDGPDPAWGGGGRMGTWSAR
Protocol: as §1

[4] = target: T1, human CD19, membrane-bound, on cells; assay: cell-based or functional assay
[5] = target: T1, human CD19, membrane-bound, on cells; assay: cell-based or functional assay; remark: listed apart in the source
[6] = target: T4, cynomolgus monkey CD19 Fc fusion protein (cynomolgus monkey, UniProt A0A2K5W8L9 20-292); assay: SPR (Biacore T200) at 37° C., CD19-Fc captured on a protein A chip, Fab injected, 1:1 binding model
T4 construct: Bought from R&D Systems; also called recombinant CD19-Fc; not shown: Fc part of a bought fusion protein
T4 sequence: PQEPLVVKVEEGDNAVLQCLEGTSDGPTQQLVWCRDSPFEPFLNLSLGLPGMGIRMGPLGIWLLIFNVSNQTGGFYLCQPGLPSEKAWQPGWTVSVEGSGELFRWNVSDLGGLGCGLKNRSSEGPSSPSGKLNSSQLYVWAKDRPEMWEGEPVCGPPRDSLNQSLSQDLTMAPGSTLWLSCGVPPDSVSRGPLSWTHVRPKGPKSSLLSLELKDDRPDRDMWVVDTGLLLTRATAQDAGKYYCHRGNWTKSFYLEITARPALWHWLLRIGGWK
Protocol: (§2) Biacore T200 instrument (GE Healthcare Life Sciences), reagents, and Biacore T200 Evaluation Software Ver 3.1 are used for the surface plasmon resonance analysis of human, mouse and cynomolgus monkey CD19 binding to the Fab fragment of CB3f. Recombinant CD19-Fc proteins are purchased from R&D Systems. A protein A sensor chip (GE protein A chip P/N 2912755) is used. Running buffer is 1×HBS-EP+ (Teknova P/N H8022), and running temperature is 37° C.
(§3) CD19 Fc fusion proteins are diluted to 3 μg/mL in running buffer, and approximately 60 RU each of human, cynomolgus monkey, and mouse proteins are captured in flow cells (Fc) 2, 3 and 4, respectively. CB3f Fab fragment is diluted to 1000 nM in running buffer and then 5-fold serially diluted in running buffer to 1.6 nM for a total of 5 dilutions. Fab or buffer blank is injected at 50 μL/min for 300 seconds followed by a 900 second dissociation phase. Regeneration is performed by injecting 10 mM glycine pH 1.5 for 30 seconds at 50 μL/min over all Fc. Reference-subtracted data is collected as Fc2-Fc1, Fc3-Fc1 and Fc4-Fc1, and then reference-subtracted data is blank subtracted. The on-rate (kₒₙ) and off-rate (koff) are fit using the “1:1 Binding” model. The affinity (KD) is calculated from the binding kinetics according to the relationship: KD=koff/kₒₙ.

[7] = target: T5, human CD19 Fc fusion protein (human, UniProt P15391 20-291); assay: as above
T5 construct: Bought from R&D Systems; also called recombinant CD19-Fc; not shown: Fc part of a bought fusion protein
T5 sequence: T2 sequence
Protocol: as §2, §3

[8] = target: T6, mouse CD19 Fc fusion protein (mouse, UniProt P25918 19-287, limits assumed); assay: SPR (Biacore T200) at 37° C., CD19-Fc captured on a protein A chip, Fab injected
T6 construct: Bought from R&D Systems; also called recombinant CD19-Fc; not shown: Fc part of a bought fusion protein
T6 sequence (looked up): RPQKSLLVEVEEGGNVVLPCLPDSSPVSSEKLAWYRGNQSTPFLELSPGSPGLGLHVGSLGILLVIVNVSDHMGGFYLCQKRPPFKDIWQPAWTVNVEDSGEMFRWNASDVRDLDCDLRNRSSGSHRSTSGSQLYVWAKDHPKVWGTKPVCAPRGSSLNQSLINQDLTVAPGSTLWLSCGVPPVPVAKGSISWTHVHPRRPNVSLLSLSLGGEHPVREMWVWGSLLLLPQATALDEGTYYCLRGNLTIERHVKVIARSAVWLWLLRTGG
Protocol: as §2, §3

[9] = target: T4, cynomolgus monkey CD19 Fc fusion protein; assay: SPR (Biacore T200) at 37° C., CD19-Fc captured on a protein A chip, Fab injected, KD = koff/kon
Protocol: as §2, §3

[10] = target: T5, human CD19 Fc fusion protein; assay: as above
Protocol: as §2, §3

Kd [1]: 3.35 pM
EC50 (read off the curve) [2]: ~0.8 µg/mL
Kd [3]: 45.2 pM
IC50, inhibition of primary B cell proliferation ([3H]-thymidine), Average of 12 donors [4]: 7 pM
IC50, inhibition of primary B cell proliferation ([3H]-thymidine), Donor 1 [4]: 6 pM
IC50, inhibition of primary B cell proliferation ([3H]-thymidine), Donor 2 [4]: 9 pM
IC50, inhibition of primary B cell proliferation ([3H]-thymidine), Donor 3 [4]: 3 pM
IC50, inhibition of primary B cell proliferation ([3H]-thymidine), Donor 4 [4]: 6 pM
IC50, inhibition of primary B cell proliferation ([3H]-thymidine), Donor 5 [4]: 4 pM
IC50, inhibition of primary B cell proliferation ([3H]-thymidine), Donor 6 [4]: 3 pM
IC50, inhibition of primary B cell proliferation ([3H]-thymidine), Donor 7 [4]: 3 pM
IC50, inhibition of primary B cell proliferation ([3H]-thymidine), Donor 8 [4]: 5 pM
IC50, inhibition of primary B cell proliferation ([3H]-thymidine), Donor 9 [4]: 5 pM
IC50, inhibition of primary B cell proliferation ([3H]-thymidine), Donor 10 [4]: 28 pM
IC50, inhibition of primary B cell proliferation ([3H]-thymidine), Donor 11 [4]: 4 pM
IC50, inhibition of primary B cell proliferation ([3H]-thymidine), Donor 12 [4]: 5 pM
IC50, inhibition of B cell activation in whole blood (reduction of CD69+ B cells), Average [5]: 8 pM
IC50, inhibition of B cell activation in whole blood (reduction of CD69+ B cells), Donor 1 [5]: 15 pM
IC50, inhibition of B cell activation in whole blood (reduction of CD69+ B cells), Donor 2 [5]: 0.6 pM
IC50, inhibition of B cell activation in whole blood (reduction of CD69+ B cells), Donor 3 [5]: 8 pM
B1: anti-human CD19 mAb CB3f (IgG4 isotype) (antibody, V domains shown)
VH: QVQLVQSGAEVKKPGSSVKVSCKASGHTISSYAYSWVRQAPGQGLEWMGDIIPAYGSPNYAQKFQGRVTITADESTSTAYMELSSLRSEDTAVYYCAREDFGKNYAMDVWGQGTLVTVSS
VL: EIVLTQSPGTLSLSPGERATLSCRASQHVSSHYLAWYQQKPGQAPRLLIYGASSRATGIPDRFSGSGSGTDFTLTISRLEPEDFAVYYCQHYGQSQFTFGQGTKVEIKR
notes: also called anti-human CD19 mAb1

koff [6]: 0.0978 s⁻¹
kon [6]: 1.04e+06 M⁻¹ s⁻¹
koff [7]: 0.000235 s⁻¹
kon [7]: 3.2e+06 M⁻¹ s⁻¹
binding result [8]: no binding (tested: 1 µM)
Kd [9]: 94500 pM
Kd [10]: 76.8 pM
B2: Fab fragment of CB3f (Fab, V domains shown)
VH: B1 VH
VL: EIVLTQSPGTLSLSPGERATLSCRASQHVSSHYLAWYQQKPGQAPRLLIYGASSRATGIPDRFSGSGSGTDFTLTISRLEPEDFAVYYCQHYGQSQFTFGQGTKVEIK
notes: also called CB3f Fab fragment; CB3f Fab

Reference: patent publication US20210269520A1 (Eli Lilly, published 2021)
